Data from the supplement of paper PMC10567573.

B1: C22orf31 (parent)
chain: YSLELGKAIKQKLWEALCSQGAIS
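Note: lentivirally expressed fusions sorted by FACS into six bins by GFP to DsRed ratio, PSI derived from sequencing read proportions per bin multiplied by bin number.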

Variants of: B1
Assay: protein stability index of a GFP-peptide fusion (GPS, HEK-293T) (PSI 1-6); higher = more stable
Details: c terminus: a fixed tail appended
YSLELGKAIKRKLWEALCSQGAIS gave a protein stability index of 3.36. Variant YSLELGKAIKSKLWEALCSQGAIS has a protein stability index of 2.01. With YSLELGKAIKWKLWEALCSQGAIS the protein stability index was 3.82. YSLELGKAIKYKLWEALCSQGAIS gave a protein stability index of 1.92. YSLELGKAIKQALWEALCSQGAIS gave a protein stability index of 3.38. For YSLELGKAIKQCLWEALCSQGAIS, the protein stability index was 2.03. Variant YSLELGKAIKQDLWEALCSQGAIS has a protein stability index of 1.56. YSLELGKAIKQELWEALCSQGAIS showed a protein stability index of 1.85. YSLELGKAIKQFLWEALCSQGAIS showed a protein stability index of 2.11. YSLELGKAIKQGLWEALCSQGAIS showed a protein stability index of 1.07. In the case of YSLELGKAIKQHLWEALCSQGAIS, the protein stability index is reported as 1.98. Variant YSLELGKAIKQILWEALCSQGAIS has a protein stability index of 3.58. In the case of YSLELGKAIKQLLWEALCSQGAIS, the protein stability index is reported as 2.66. YSLELGKAIKQNLWEALCSQGAIS gave a protein stability index of 1.93. YSLELGKAIKQPLWEALCSQGAIS gave a protein stability index of 1.51. With YSLELGKAIKQQLWEALCSQGAIS the protein stability index was 2.26. In the case of YSLELGKAIKQRLWEALCSQGAIS, the protein stability index is reported as 1.53. In the case of YSLELGKAIKQSLWEALCSQGAIS, the protein stability index is reported as 1.39. With YSLELGKAIKQTLWEALCSQGAIS the protein stability index was 2.87. For YSLELGKAIKQVLWEALCSQGAIS, the protein stability index was 2.49. Work on YSLELGKAIKQWLWEALCSQGAIS yielded a protein stability index of 2.25. YSLELGKAIKQYLWEALCSQGAIS showed a protein stability index of 1.93. Variant YSLELGKAIKQKAWEALCSQGAIS has a protein stability index of 1.41. YSLELGKAIKQKCWEALCSQGAIS gave a protein stability index of 1.35. In the case of YSLELGKAIKQKDWEALCSQGAIS, the protein stability index is reported as 2.37. Work on YSLELGKAIKQKEWEALCSQGAIS yielded a protein stability index of 3.05. With YSLELGKAIKQKFWEALCSQGAIS the protein stability index was 1.13. YSLELGKAIKQKGWEALCSQGAIS showed a protein stability index of 1.88. In the case of YSLELGKAIKQKHWEALCSQGAIS, the protein stability index is reported as 2.48. YSLELGKAIKQKIWEALCSQGAIS showed a protein stability index of 2.33. In the case of YSLELGKAIKQKKWEALCSQGAIS, the protein stability index is reported as 1.47. With YSLELGKAIKQKMWEALCSQGAIS the protein stability index was 2.17. YSLELGKAIKQKNWEALCSQGAIS gave a protein stability index of 2.63. For YSLELGKAIKQKPWEALCSQGAIS, the protein stability index was 2.04. With YSLELGKAIKQKQWEALCSQGAIS the protein stability index was 1.92. YSLELGKAIKQKRWEALCSQGAIS gave a protein stability index of 2.05. In the case of YSLELGKAIKQKSWEALCSQGAIS, the protein stability index is reported as 2.24. With YSLELGKAIKQKTWEALCSQGAIS the protein stability index was 1.88. In the case of YSLELGKAIKQKWWEALCSQGAIS, the protein stability index is reported as 1.94. In the case of YSLELGKAIKQKYWEALCSQGAIS, the protein stability index is reported as 1.56. In the case of YSLELGKAIKQKLAEALCSQGAIS, the protein stability index is reported as 1.06. For YSLELGKAIKQKLCEALCSQGAIS, the protein stability index was 1.62. YSLELGKAIKQKLDEALCSQGAIS gave a protein stability index of 3.34. In the case of YSLELGKAIKQKLEEALCSQGAIS, the protein stability index is reported as 2.52. In the case of YSLELGKAIKQKLGEALCSQGAIS, the protein stability index is reported as 3.06. YSLELGKAIKQKLHEALCSQGAIS showed a protein stability index of 1.34. YSLELGKAIKQKLIEALCSQGAIS gave a protein stability index of 3.71. YSLELGKAIKQKLKEALCSQGAIS gave a protein stability index of 2. YSLELGKAIKQKLLEALCSQGAIS gave a protein stability index of 3.37. In the case of YSLELGKAIKQKLMEALCSQGAIS, the protein stability index is reported as 2.24. YSLELGKAIKQKLNEALCSQGAIS gave a protein stability index of 2.21. For YSLELGKAIKQKLPEALCSQGAIS, the protein stability index was 3.34. For YSLELGKAIKQKLQEALCSQGAIS, the protein stability index was 1.83. YSLELGKAIKQKLSEALCSQGAIS gave a protein stability index of 1.85. Variant YSLELGKAIKQKLTEALCSQGAIS has a protein stability index of 1.98. Variant YSLELGKAIKQKLVEALCSQGAIS has a protein stability index of 3.18. Variant YSLELGKAIKQKLYEALCSQGAIS has a protein stability index of 1.78. Work on YSLELGKAIKQKLWCALCSQGAIS yielded a protein stability index of 3. With YSLELGKAIKQKLWFALCSQGAIS the protein stability index was 3. YSLELGKAIKQKLWGALCSQGAIS gave a protein stability index of 1.31. With YSLELGKAIKQKLWHALCSQGAIS the protein stability index was 1.65. YSLELGKAIKQKLWKALCSQGAIS gave a protein stability index of 2.73. In the case of YSLELGKAIKQKLWNALCSQGAIS, the protein stability index is reported as 3. Work on YSLELGKAIKQKLWPALCSQGAIS yielded a protein stability index of 2.25. In the case of YSLELGKAIKQKLWQALCSQGAIS, the protein stability index is reported as 1.41. For YSLELGKAIKQKLWRALCSQGAIS, the protein stability index was 3.18. In the case of YSLELGKAIKQKLWSALCSQGAIS, the protein stability index is reported as 2.19. YSLELGKAIKQKLWTALCSQGAIS gave a protein stability index of 1.64. Variant YSLELGKAIKQKLWWALCSQGAIS has a protein stability index of 1.9. For YSLELGKAIKQKLWECLCSQGAIS, the protein stability index was 2.24. For YSLELGKAIKQKLWEDLCSQGAIS, the protein stability index was 1.98. With YSLELGKAIKQKLWEELCSQGAIS the protein stability index was 1.74. Variant YSLELGKAIKQKLWEGLCSQGAIS has a protein stability index of 2.26. For YSLELGKAIKQKLWEHLCSQGAIS, the protein stability index was 1.83. YSLELGKAIKQKLWELLCSQGAIS showed a protein stability index of 1.77. For YSLELGKAIKQKLWEMLCSQGAIS, the protein stability index was 2.69. With YSLELGKAIKQKLWENLCSQGAIS the protein stability index was 1.29. YSLELGKAIKQKLWEPLCSQGAIS showed a protein stability index of 2.3. YSLELGKAIKQKLWEQLCSQGAIS gave a protein stability index of 1.89. With YSLELGKAIKQKLWERLCSQGAIS the protein stability index was 2.1. YSLELGKAIKQKLWESLCSQGAIS showed a protein stability index of 2.54. With YSLELGKAIKQKLWETLCSQGAIS the protein stability index was 3.32. With YSLELGKAIKQKLWEWLCSQGAIS the protein stability index was 2.4. Work on YSLELGKAIKQKLWEYLCSQGAIS yielded a protein stability index of 1.89. YSLELGKAIKQKLWEAACSQGAIS gave a protein stability index of 1.25. With YSLELGKAIKQKLWEACCSQGAIS the protein stability index was 3.17. YSLELGKAIKQKLWEADCSQGAIS gave a protein stability index of 2.62. Work on YSLELGKAIKQKLWEAECSQGAIS yielded a protein stability index of 1.69. With YSLELGKAIKQKLWEAFCSQGAIS the protein stability index was 2.17. For YSLELGKAIKQKLWEAGCSQGAIS, the protein stability index was 2.05. With YSLELGKAIKQKLWEAHCSQGAIS the protein stability index was 1.47. Variant YSLELGKAIKQKLWEAICSQGAIS has a protein stability index of 2.85. For YSLELGKAIKQKLWEAKCSQGAIS, the protein stability index was 2.11. In the case of YSLELGKAIKQKLWEAMCSQGAIS, the protein stability index is reported as 2.88.
